We go through 3 molecules from patent US20120065146A1.

Non-standard residues stand in square brackets, D forms with d. No end group written: not given here. pT = C[C@@H](OP(=O)(O)O)[C@H](N)C(=O)O

This test deals with HA-EGFP-Plk1, P53350. The experiment in a line: ELISA competition. The following applies: remark: other sources report otherwise.
HA-EGFP-Plk1, P53350, sequence (P53350 whole entry): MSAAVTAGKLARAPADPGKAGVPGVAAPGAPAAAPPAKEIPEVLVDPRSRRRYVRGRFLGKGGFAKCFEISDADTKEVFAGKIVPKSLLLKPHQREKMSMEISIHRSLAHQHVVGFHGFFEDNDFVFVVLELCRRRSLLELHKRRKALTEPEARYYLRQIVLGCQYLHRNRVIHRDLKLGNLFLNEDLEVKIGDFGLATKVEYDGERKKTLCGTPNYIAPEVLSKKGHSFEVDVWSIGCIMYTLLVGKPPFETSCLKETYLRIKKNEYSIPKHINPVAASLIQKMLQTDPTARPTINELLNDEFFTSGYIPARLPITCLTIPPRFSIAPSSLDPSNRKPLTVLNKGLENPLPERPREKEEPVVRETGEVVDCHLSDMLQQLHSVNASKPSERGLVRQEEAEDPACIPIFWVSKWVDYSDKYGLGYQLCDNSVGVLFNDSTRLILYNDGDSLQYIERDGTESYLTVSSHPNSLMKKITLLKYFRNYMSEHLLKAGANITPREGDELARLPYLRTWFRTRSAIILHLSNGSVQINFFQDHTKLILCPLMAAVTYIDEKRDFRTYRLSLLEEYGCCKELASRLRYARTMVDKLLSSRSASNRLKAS

B1: peptide 5 (Example 15), S/A mutant of 3l (peptide)
peptide: PLHA[pT]
modifications: also: further groups not given here
For the molecule B1, the fold decrease in binding against 3l stood at 100 fold.

B2: peptide 9 (Example 12), S/A mutant of 7 (peptide)
peptide: PLHA[pT]
modifications: also: Pro 1 modified as in ether analogue 7 (structure not given here)
The molecule B2 showed a fold loss of binding affinity greater than 100 fold.

B3: peptide 11 (Example 12), S/A mutant of 8 (peptide)
peptide: PLHA[pT]
modifications: also: Pro 1 modified as in ether analogue 8 (structure not given here)
As for B3, the fold loss of binding affinity is greater than 100 fold.
